Data taken from article PMC3594540 (Nature structural & molecular biology, 2013).

How the values were obtained:
Assay in all cases: cell-based or functional assay
[1] = target: T1, human PLCβ3 (residues 10–1234) (human, UniProt Q01970 10-1234)
T1 sequence: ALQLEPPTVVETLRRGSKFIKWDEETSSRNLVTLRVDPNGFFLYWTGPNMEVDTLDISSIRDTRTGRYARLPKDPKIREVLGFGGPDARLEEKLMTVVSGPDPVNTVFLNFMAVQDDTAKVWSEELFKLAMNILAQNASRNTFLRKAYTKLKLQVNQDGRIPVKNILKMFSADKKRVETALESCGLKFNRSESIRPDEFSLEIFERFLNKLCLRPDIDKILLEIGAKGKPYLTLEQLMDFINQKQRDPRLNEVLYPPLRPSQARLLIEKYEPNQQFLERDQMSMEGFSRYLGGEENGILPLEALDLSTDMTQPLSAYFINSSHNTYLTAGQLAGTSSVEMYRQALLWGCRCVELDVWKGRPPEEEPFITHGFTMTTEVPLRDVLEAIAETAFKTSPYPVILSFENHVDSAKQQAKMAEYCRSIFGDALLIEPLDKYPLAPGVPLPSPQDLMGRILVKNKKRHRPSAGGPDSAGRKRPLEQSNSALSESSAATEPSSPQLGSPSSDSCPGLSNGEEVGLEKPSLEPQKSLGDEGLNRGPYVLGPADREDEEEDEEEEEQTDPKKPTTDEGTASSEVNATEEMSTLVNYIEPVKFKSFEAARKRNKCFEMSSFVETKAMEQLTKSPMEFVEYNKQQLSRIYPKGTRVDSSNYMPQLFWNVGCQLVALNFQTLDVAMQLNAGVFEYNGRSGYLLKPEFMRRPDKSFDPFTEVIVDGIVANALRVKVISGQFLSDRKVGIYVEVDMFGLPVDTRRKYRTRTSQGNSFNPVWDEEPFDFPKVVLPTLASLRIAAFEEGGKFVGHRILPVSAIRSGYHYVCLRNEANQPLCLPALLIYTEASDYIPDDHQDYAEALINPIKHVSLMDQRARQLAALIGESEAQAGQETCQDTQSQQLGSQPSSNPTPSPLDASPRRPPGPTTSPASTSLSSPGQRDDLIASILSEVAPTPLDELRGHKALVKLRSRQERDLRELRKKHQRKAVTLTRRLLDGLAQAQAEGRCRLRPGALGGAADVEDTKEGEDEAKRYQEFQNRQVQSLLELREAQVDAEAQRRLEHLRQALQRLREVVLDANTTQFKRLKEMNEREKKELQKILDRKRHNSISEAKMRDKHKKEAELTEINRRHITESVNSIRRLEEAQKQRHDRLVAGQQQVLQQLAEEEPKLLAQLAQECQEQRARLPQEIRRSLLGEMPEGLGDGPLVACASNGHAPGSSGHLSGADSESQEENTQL

PLCβ3 L876A = PLCβ3 L876A (human, UniProt Q01970 10-1234, L876A)
PLCβ3 T652E = target: T2, PLCβ3 T652E (human, UniProt Q01970)
T2 chain: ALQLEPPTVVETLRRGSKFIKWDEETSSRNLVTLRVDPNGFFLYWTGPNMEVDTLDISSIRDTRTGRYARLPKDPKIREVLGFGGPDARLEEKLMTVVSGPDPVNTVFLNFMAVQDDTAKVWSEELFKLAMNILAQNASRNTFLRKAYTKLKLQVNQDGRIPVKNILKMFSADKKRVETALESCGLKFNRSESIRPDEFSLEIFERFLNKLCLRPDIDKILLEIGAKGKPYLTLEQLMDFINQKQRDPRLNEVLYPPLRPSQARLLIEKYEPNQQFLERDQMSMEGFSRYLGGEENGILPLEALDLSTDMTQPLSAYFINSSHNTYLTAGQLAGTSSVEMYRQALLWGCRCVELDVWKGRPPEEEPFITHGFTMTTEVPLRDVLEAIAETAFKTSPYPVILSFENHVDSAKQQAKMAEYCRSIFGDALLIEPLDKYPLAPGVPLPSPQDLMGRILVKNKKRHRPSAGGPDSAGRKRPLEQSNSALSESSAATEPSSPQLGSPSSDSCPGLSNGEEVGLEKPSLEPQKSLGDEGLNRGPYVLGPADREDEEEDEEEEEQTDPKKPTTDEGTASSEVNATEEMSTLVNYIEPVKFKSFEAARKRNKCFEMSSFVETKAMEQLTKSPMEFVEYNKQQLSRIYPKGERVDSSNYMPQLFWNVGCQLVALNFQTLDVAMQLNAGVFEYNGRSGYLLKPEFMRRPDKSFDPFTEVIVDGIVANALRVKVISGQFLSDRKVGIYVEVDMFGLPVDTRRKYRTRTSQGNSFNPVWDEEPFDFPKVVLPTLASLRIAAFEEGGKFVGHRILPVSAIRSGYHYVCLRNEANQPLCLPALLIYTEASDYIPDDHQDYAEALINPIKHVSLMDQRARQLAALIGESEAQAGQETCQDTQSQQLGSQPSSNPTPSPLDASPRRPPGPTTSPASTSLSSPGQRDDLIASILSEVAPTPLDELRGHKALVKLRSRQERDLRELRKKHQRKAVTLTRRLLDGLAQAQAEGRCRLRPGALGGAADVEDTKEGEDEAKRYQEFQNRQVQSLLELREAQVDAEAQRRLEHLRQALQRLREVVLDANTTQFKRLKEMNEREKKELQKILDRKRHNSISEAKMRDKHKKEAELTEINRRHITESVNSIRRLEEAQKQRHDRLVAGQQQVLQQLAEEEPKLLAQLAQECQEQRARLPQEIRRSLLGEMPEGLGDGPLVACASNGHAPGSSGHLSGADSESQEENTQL

B1: murine Gαq (residues 7–359), biotinylated for bead binding (natural protein)
chain: MACCLSEEAKEARRINDEIERQLRRDKRDARRELKLLLLGTGESGKSTFIKQMRIIHGSGYSDEDKRGFTKLVYQNIFTAMQAMIRAMDTLKIPYKYEHNKAHAQLVREVDVEKVSAFENPYVDAIKSLWNDPGIQECYDRRREYQLSDSTKYYLNDLDRVADPSYLPTQQDVLRVRVPTTGIIEYPFDLQSVIFRMVDVGGQRSERRKWIHCFENVTSIMFLVALSEYDQVLVESDNENRMEESKALFRTIITYPWFQNSSVILFLNKKDLLEEKIMYSHLVDYFPEYDGPQRDAQAAREFILKMFVDLNPDSDKIIYSHFTCATDTENIRFVFAAVKDTILQLNLKEYNLV
EC50 of Gαq-stimulated PIP2 hydrolysis ([3H]-IP3 release from liposomes) [1]: 120 nM
Max specific activity of Gαq-stimulated PIP2 hydrolysis (liposomes) [1]: 2900 nmol IP3/min/nmol PLCβ3
EC50 of Gαq-stimulated PIP2 hydrolysis ([3H]-IP3 release from liposomes) (PLCβ3 L876A): 19 nM
Max specific activity of Gαq-stimulated PIP2 hydrolysis (liposomes) (PLCβ3 L876A): 6500 nmol IP3/min/nmol PLCβ3
EC50 of Gαq-stimulated PIP2 hydrolysis ([3H]-IP3 release from liposomes) (PLCβ3 T652E): 1150 nM
